Assay results: patent US20260234247A1 (published 2026)
Changes are numbered by the printed parent chain.

B1: LK-RB1-19 (antibody, human IgG4 S228P, kappa, V domains shown)
VH: QVQLKESGPGLVAPSQNLSITCTVSGFSLTSYGVSWVRQPPGKGLEWLGIIWGDGNTDYHSALISRLSIRKDNSKSQVFLKLNSLKSDDTATYYCAKPHWEYYTMDYWGQGTSVTVSS
VL: DIQMTQTTSSLSASLGDRVTISCRASQDISNFLNWYQQKPDGTVKLLIYSTSRLHSGVPSRFSGSGSGTDYSLTIANLEQEDVATYFCQQGNTLPLTFGAGTKLELKR
B2: LK-RB1-22 (antibody, human IgG4 S228P, kappa, V domains shown)
VH: B1 VH with N17S, D58N, I64T, R70S, K86R, S87T, E101D, Y102H, T104S
VL: B1 VL with S50Y, V58A, A76S, E79D, V83I
B3: LK-RB1-30 (antibody, human IgG4 S228P, kappa, V domains shown)
VH: B1 VH with N17S, V37I, I50V, D58N, R70S, K86Q, S87T, H99S, E101D, T104A
VL: VIQMTQTTSSLSASLGDRVTISCRASQDISNYVNWYQQRPDGTVKLLISYTSRLHSGVPSRFSGSGSGTDYSLTITNLEQEDIATYFCQQGITLPCTFGGGTKLEINR
B4: LK-RB1-26 (antibody, human IgG4 S228P, kappa, V domains shown)
VH: B1 VH with N17S, N56S, D58N, R70S, K86Q, S87T, H99N, E101D, T104A
VL: B1 VL with V44F, Y49S, S50Y, R53T, A76S, E105A
B5: LK-RB1-34 (antibody, human IgG4 S228P, kappa, V domains shown)
VH: QVQLQQSGAELVKPGASVKLSCKASGYTFTEYTIHWVKQRSGQGLEWIGWFYPGSDSIKYNEKFKDKATLTADKSSSTVYMELSRLTSEDSAVYFCSRHEGPYFTSQYYFDYWGQGTTLTVSS
VL: DILLTQSPAILSVSPGERVSFSCRASRYIGTSIHWYQQRTNGSPRLLIKYASESISGIPSRFSGSGSGTDFTLSINSVESEDIADYYCQQSNTWPLTFGAGTKLELKR
B6: LK-RB1-37 (antibody, human IgG4 S228P, kappa, V domains shown)
VH: QVQLQQPGAELVKPGASVKLSCKASGYTFTSYWMHWVKQRPGRGPEWIGRIDPNSGYARYNEKFKNKATLTADKPSSTADMHLSSLTSEDSAVYYCTRSFITTAEWFFDVWGTGTTVTVSS
VL: B5 VL with R27Q, Y28S, T40R, A51T, T93S, L96H, A100G
B7: LK-RB1-23 (antibody, human IgG4 S228P, kappa, V domains shown)
VH: QVQLQQTGAELVRPGSSVKLSCKASGYTFTNYWMDWVKQRPGQGLEWIGNIHPFGNETHYNQKFKDKATLTVDKSSSTAYMQLSSLTSEDSAVYYCARGLLLYFDVWGTGTTVTVSS
VL: DIQMTQSPASQSVSVGETVTITCRASENIYSNLAWYQQKQGKSPQLLVYGATNLADGVSLRFSGSGSGTQYSLKINSLQSEDFGSYYCQHFWGIPWTFGGGTKLEIKR
B8: LK-RB1-27 (antibody, human IgG4 S228P, kappa, V domains shown)
VH: QVQLQQSGPELVKPGASVRMSCKASGYTFTSHYIHWMKQRPGQGLEWIGWIYPGDGHTKYHEKFKDRATLTADTSSITAYMRLSSLTSEDSAIYYCVYYSDSWFPYWGQGTLVTVSA
VL: B7 VL with Q11L, Q45H, G50A, S59P, L60S, S85N, I94S
B9: LK-RB1-28 (antibody, human IgG4 S228P, kappa, V domains shown)
VH: B8 VH with A16T, R19K, E46D, D66G, R67K, R82Q, S85L, I93V
VL: B7 VL with Q11L, G50A, S59P, L60S, S85N, Y87F, I94S
B10: LK-RB1-32 (antibody, human IgG4 S228P, kappa, V domains shown)
VH: QVQLQQSGAELAKPGASVKLSCTASGYTFTTYLMHWVKQRPAQGLEWIGYINPSNDFTKYNQKFKDKATLTADTSSSTAYMQLNSLTFEDSAVYYCARNSDYDPSYWGQGTTLTVSS
VL: DIQMTQSPASLSVSVGETVTITCRASENIYSSLAWYQQKQGKSPQLLVYAATNLADGVPSRFSGSGSGTQYSLKINSLQSEDFGNYYCQHFWGTWAFGGGTKLEIKR
B11: LK-RB1-35 (antibody, human IgG4 S228P, kappa, V domains shown)
VH: DVQLQESGPGLEKPSQSLSLTCSVTGYSITRGYQWNWIRQFPGNKLEWMGYISYDGSNNYNPSLKNRISITRDASKNQFFLKLNSVTTEDTATYYCARRSYNSIDYWGQGTTLTVSS
VL: DIVLTQSPATLSVTPGDSVSLSCRASQSISSNLHWYQQKSHESPRLLIKYASQSISGIPSRFSGSGSGTDFTLSINSVETEDFGMYFCQQSNSWPLTFGAGTKLELKR
B12: LK-RB1-38 (antibody, human IgG4 S228P, kappa, V domains shown)
VH: DVQLQESGPGLVQPSQSLSLTCSVTGYSITSGYQWNWIRQLPGNKLEWMAYISFDGSNNYNPSLKNRISITRDTSKNQFFLKLKSVTTEDTATYYCARRDYDGVAYWGQGTLVTVSA
VL: B11 VL with D1E, S18R, S28N, S31N, N32Y, E42G, L47I
B13: LK-RB1-36 (antibody, human IgG4 S228P, kappa, V domains shown)
VH: B11 VH with T71I, A74T
VL: B11 VL with S31N
B14: LK-RB1-29 (antibody, human IgG4 S228P, kappa, V domains shown)
VH: QVQLKESGPGLVAPSQNLAITCTVSGFSLTNSGVSWVRQSPGKGLEWLGIIWGDGNTNYHSALISRLSISKDNSKSQVFLKLNSLQTDDTGTYYCAKPNWDYYALDYWGQGTSVTVSS
VL: DIQMTQTASSLFASLGDRVTISCRASQDISNYLNWYQQKPDGSIKLLISYTSRLHSGVPSRFSGSGSGTDYSLSISNLEQEDIATYFCQQGISLPCTFGGGTKLEVNR
B15: LK-RB1-42 (antibody, human IgG4 S228P, kappa, V domains shown)
VH: QVQLQQPGAELVKPGTSVKLSCKASGYSFISYWVYWVKQRPGQGLEWIGMIHPNSGSTNFNEKFRYKATLTVDKSSSTAYIQLSSLTSEDSAVYYCGRSDDGYPYHAMDSWGQGTSVTVSS
VL: DIVMTQSQKFMSTSVGDRVSVTCKASQNVGTNVAWYQQKPGQSPKALIYSASYRFSGVPDRFTGSGSGTDFTLTIGNVQSEDLAEYFCHQYKNYPLTFGGGTKLEIKR
B16: LK-RB1-25 (antibody, human IgG4 S228P, kappa, V domains shown)
VH: QIQLVQSGPELKKPGETVKISCKASGYTFTSYGMNWMKQAPGEGLKWMGWINTYSGVPTYADDFKGRFAFSLETSATTVYLQINNLKNEDKATYFCARRGRDSVVGHFDVWGTGTTVTVSS
VL: DIVMTQSHKFMSTSVGDRVSITCKASQDVNTAVAWYQQKPGQSPKLLIYWASTRHTGVPDRFTGSGSGTDFTLTISSVQAEDLALYYCQQHYTIPFTFGSGTKLEIKR
B17: LK-RB1-46 (antibody, human IgG4 S228P, kappa, V domains shown)
VH: EVQLQQSGPELVKPGASVKISCKTSGYTFTDYYMNWVKQSHGKSLEWIGDIYPINGDISYNQKFKGKATLTVDKSSSTVYMEIRSLTYEDSAVYYCARLAQTTSGGFDYWGQGTTLTVSS
VL: DIVLTQSPTSLAVSLGQRAIISCKASQSVSFAGTSLMHWYQQKPGQQPKLLIYRASNLKAGVPTRFSGSGSRTDFTLNIHPVEEDDAATYYCQQSREYPMYTFGGGTKLEIKR
B18: LK-RB1-44 (antibody, human IgG4 S228P, kappa, V domains shown)
VH: QVQLQQSGTELAKPGASVKLSCKASGYTFTNYWMHWIKQRPGQGLEWIGYVHPTSDYTKYNQKFKDKATLTADKSSSTAYMQLNSLTYEDSAVYYCTRSSLYDTNYVFDSWGQGTTLTVSS
VL: DILLTQSPAILSVSPGERVSFSCRASQSIGRSIHWFQQRTNGSPSLLIKYASESISGIPSRFSGGGSGTDFTLSISNVESEDIADYYCQQSNNWPFTFGSGTKLEIKR
B19: LK-RB1-45 (antibody, human IgG4 S228P, kappa, V domains shown)
VH: B18 VH with K13R, Y32F, H52N
VL: B18 VL with F36Y, S45R
B20: LK-RB1-21 (antibody, human IgG4 S228P, kappa, V domains shown)
VH: QVQLQQPGAELVKPGASVKMSCKASGYIFTDYWTTWVKQRPGQGLEWIGDIYPVSGSTNYNEKFKNKATLTVDTSSSTAYMQLSSLTSEDSAVYYCARALGRRYYFDYWGQGTTLTVSS
VL: DIVMTQSHKFMSTSIGDRVSITCKASQDVSTAVAWCQQKPGQSPKSLIYSASYRYTGIPDRFTGSGSGTDFTFTISSVQAEDLAVYYCQQHYTNPVTFGTGTKLELKR
B21: LK-RB1-20 (antibody, human IgG4 S228P, kappa)
heavy: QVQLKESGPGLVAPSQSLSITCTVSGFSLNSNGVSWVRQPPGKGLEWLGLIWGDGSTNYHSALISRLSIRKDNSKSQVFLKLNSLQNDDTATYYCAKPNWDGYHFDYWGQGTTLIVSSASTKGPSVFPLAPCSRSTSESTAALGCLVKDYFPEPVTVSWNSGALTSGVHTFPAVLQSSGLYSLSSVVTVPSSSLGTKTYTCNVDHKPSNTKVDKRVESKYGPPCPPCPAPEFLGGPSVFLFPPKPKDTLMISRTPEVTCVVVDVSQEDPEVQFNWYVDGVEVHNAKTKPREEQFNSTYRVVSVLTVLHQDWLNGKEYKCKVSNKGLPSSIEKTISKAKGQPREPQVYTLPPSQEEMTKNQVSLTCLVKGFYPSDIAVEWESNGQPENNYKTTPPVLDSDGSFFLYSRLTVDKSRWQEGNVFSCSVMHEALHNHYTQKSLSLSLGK
light: DIQMNQSPSSLSASLGDTITITCHASQNIDFWLSWYQQKPGNIPKLLIYKASNLHTGVPSRFSGSGSGTGFTLTISSLQPEDIATYYCQQGQSYPLTFGAGTKLELKRTVAAPSVFIFPPSDEQLKSGTASVVCLLNNFYPREAKVQWKVDNALQSGNSQESVTEQDSKDSTYSLSSTLTLSKADYEKHKVYACEVTHQGLSSPVTKSFNRGEC
B22: LK-RB1-55 (antibody, human IgG4 S228P, kappa, V domains shown)
VH: EVKLVESGGGLVQPGGSLKLSCAASGFTFSDYYMYWVRQTPEKRLEWVAYISNGGDITFYPDTVKGRFTISRDNARSTLYLQMSRLKSEDTAIYYCASATTEVGAMDHWGQGTSVTVSS
VL: DIVMTQSQKFMSTTVGDRVSITCKASQNVGTAVAWYQQKPGKSPKLLIYAASNRYTGVPDRFTGSGSGTDFTLTISNMQSEDLADYFCQQYSSYRTFGGGTNLEIKR
B23: LK-RB1-57 (antibody, human IgG4 S228P, kappa, V domains shown)
VH: B22 VH with M83T
VL: B22 VL with M78V, N102S
B24: LK-RB1-48 (antibody, human IgG4 S228P, kappa, V domains shown)
VH: B22 VH with D56G, T58S, R76K, S77N, T101K, H108Y
VL: B22 VL with M11L, K42Q, L46I, A50S, N102K
B25: LK-RB1-24 (antibody, human IgG4 S228P, kappa, V domains shown)
VH: QVQLQQPGAELVNPGTSVNLSCKASGYTFTGYWMHWVKQRPGQGLEWIGMIHPNNGGTIYNERFNGKATLTVDRSSTTAYIQLSSLTSEDSAVYYCAYWDLDYWGQGTTLTVSS
VL: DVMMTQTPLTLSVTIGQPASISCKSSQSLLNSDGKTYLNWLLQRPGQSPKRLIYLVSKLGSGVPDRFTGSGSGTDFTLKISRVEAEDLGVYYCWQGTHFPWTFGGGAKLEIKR
B26: LK-RB1-43 (antibody, human IgG4 S228P, kappa, V domains shown)
VH: EFQLQQSGPELMKPGASVKISCKASGYSFTDYNMNWVKQSNGKSLEWIGIIDPNYGTTTYNQKFKGRATLTVDQSSNTAYMQLNSLTSEDSAVYYCAREGRYSWFAYWGQGTLVTVSA
VL: DIQMTQSPGALSVSVGETVTITCRASENINSNLAWYQQKQGKSPQLLVYAATNLADGVPSRFSGSGSGTQYSLKINSLQSEDFGSYHCQHFWGTPFTFGSGTKLEIKR

biological target: T1, human LILRB1 (human, UniProt Q8NHL6 24-458, limits assumed); assay: Octet off-rate ranking;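 further: antibody dissociation rate constants against cynomolgus LILRB2 plus human LILRB1, LILRB2, LILRA1 and LILRA2, measured on an Octet instrument to rank binding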
T1 construct: also called hLILRB1
T1 sequence (Q8NHL6 24-458 limits assumed): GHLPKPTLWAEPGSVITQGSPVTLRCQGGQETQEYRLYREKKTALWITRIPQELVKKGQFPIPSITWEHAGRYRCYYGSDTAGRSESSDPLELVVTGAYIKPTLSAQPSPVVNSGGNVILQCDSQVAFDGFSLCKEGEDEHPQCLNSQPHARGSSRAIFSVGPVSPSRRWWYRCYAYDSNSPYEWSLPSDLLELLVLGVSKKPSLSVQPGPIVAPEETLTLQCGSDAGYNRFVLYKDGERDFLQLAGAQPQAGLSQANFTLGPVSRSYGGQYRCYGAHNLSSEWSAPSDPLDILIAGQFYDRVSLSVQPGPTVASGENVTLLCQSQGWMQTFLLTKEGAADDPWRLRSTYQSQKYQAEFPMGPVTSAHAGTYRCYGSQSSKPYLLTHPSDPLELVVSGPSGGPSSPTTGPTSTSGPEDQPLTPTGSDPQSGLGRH
Description: Binding affinity of anti-LILRB1 and anti-LILRB2 antibodies against human LILRB1, LILRB2, LILRA1, LILRA2 and cynomolgus LILRB2 was ranked by measuring dissociation rate constant (Kdis) using the Octet system.

Binder	koff
B1	4.78e-05 s⁻¹
B2	0.000416 s⁻¹
B3	6.05e-05 s⁻¹
B4	0.000155 s⁻¹
B5	0.000222 s⁻¹
B6	3.91e-05 s⁻¹
B7	0.000477 s⁻¹
B8	0.000112 s⁻¹
B9	6.28e-05 s⁻¹
B10	3.66e-05 s⁻¹
B11	0.00116 s⁻¹
B12	0.000532 s⁻¹
B13	0.00121 s⁻¹
B14	8.11e-05 s⁻¹
B15	0.000139 s⁻¹
B16	9.03e-05 s⁻¹
B17	0.000739 s⁻¹
B18	0.000559 s⁻¹
B19	0.000611 s⁻¹
B20	4.02e-05 s⁻¹
B21	0.000141 s⁻¹
B22	< 1e-07 s⁻¹
B23	< 1e-07 s⁻¹
B24	8.47e-06 s⁻¹
B25	0.000987 s⁻¹
B26	0.000364 s⁻¹
